The values that follow come from publication PMC10397247.

One assay deals with T1, 4H3632-bH.
T1 chain: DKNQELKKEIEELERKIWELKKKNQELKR
Nature of the assay: two-hybrid library CCNG1.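 Further: natural log of median RNA to DNA barcode read ratio; higher means stronger binding.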

The next assay deals with T2, 4H145-bH.
T2 chain: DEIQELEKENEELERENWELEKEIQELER
Nature of the assay: two-hybrid library CCNG1.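 Further: natural log of median RNA to DNA barcode read ratio; higher means stronger binding.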 As to conditions: mean of both orientations.

Another assay addresses T3, 4H3070-bH.
T3 chain: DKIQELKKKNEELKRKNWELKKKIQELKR
Nature of the assay: two-hybrid library CCNG1.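 Further: natural log of median RNA to DNA barcode read ratio; higher means stronger binding.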 Particulars: mean of both orientations.

In another assay the target is T4, 4H496-bH.
T4 chain: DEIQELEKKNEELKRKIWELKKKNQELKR
Nature of the assay: two-hybrid library CCNG1.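 Further: natural log of median RNA to DNA barcode read ratio; higher means stronger binding.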

In another assay the target is T5, 4H2619-bH.
T5 chain: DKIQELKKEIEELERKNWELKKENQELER
Nature of the assay: two-hybrid library CCNG1.

The next assay has as its target T6, 4H342-bH.
T6 chain: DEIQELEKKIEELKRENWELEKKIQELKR
Nature of the assay: two-hybrid library CCNG1.

The next assay deals with T7, 4H2691-bH.
T7 chain: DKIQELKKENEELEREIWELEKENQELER
Nature of the assay: two-hybrid library CCNG1.

In the next assay the target is T8, 4H575-bH.
T8 chain: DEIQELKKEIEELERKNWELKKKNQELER
Nature of the assay: two-hybrid library CCNG1.

In another assay the target is T9, 4H2627-bH.
T9 chain: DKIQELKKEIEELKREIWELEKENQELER
Nature of the assay: two-hybrid library CCNG1.

The next assay has as its target T10, 4H1158-bH.
T10 chain: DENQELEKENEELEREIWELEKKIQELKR
Nature of the assay: two-hybrid library CCNG1.

The target in the next assay is T11, 4H3112-bH.
T11 chain: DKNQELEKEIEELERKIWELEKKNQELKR
Nature of the assay: two-hybrid library CCNG1.

Another assay deals with T12, 4H3427-bH.
T12 chain: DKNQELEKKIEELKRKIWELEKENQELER
Nature of the assay: two-hybrid library CCNG1.

Another assay concerns the target T13, 4H3926-bH.
T13 chain: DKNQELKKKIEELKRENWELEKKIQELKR
Nature of the assay: two-hybrid library CCNG1.

A further assay addresses T14, 4H457-bH.
T14 chain: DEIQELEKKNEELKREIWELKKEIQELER
Nature of the assay: two-hybrid library CCNG1.

Another assay concerns the target T15, 4H797-bH.
T15 chain: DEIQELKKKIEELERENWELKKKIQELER
Nature of the assay: two-hybrid library CCNG1.

For a further assay, the target named is T16, 4H4073-bH.
T16 chain: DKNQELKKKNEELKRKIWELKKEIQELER
Nature of the assay: two-hybrid library CCNG1.

Another assay deals with T17, 4H855-bH.
T17 chain: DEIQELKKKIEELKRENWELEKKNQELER
Nature of the assay: two-hybrid library CCNG1.

The target of the next assay is T18, 4H118-bH.
T18 chain: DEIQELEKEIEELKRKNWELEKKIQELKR
Nature of the assay: two-hybrid library CCNG1.

Another assay has as its target T19, 4H170-bH.
T19 chain: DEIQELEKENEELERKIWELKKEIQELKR
Nature of the assay: two-hybrid library CCNG1.

The next assay addresses T20, 4H112-bH.
T20 chain: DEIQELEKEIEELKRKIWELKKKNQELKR
Nature of the assay: two-hybrid library CCNG1.

The next assay has as its target T21, 4H683-bH.
T21 chain: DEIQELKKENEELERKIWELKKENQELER
Nature of the assay: two-hybrid library CCNG1.

In a further assay the target is T22, 4H953-bH.
T22 chain: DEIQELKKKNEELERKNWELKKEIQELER
Nature of the assay: two-hybrid library CCNG1.

The next assay addresses T23, 4H346-bH.
T23 chain: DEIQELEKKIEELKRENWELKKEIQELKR
Nature of the assay: two-hybrid library CCNG1.

The next assay addresses T24, 4H1831-bH.
T24 chain: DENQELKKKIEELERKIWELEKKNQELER
Nature of the assay: two-hybrid library CCNG1.

The target of a further assay is T25, 4H918-bH.
T25 chain: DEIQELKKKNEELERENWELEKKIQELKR
Nature of the assay: two-hybrid library CCNG1.

The target in another assay is T26, 4H754-bH.
T26 chain: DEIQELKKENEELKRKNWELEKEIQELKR
Nature of the assay: two-hybrid library CCNG1.

A further assay deals with T27, 4H2233-bH.
T27 chain: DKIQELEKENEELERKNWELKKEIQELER
Nature of the assay: two-hybrid library CCNG1.

Another assay deals with T28, 4H3010-bH.
T28 chain: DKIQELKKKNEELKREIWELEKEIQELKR
Nature of the assay: two-hybrid library CCNG1.

A further assay deals with T29, 4H968-bH.
T29 chain: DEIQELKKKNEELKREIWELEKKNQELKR
Nature of the assay: two-hybrid library CCNG1.

The target in a further assay is T30, 4H2702-bH.
T30 chain: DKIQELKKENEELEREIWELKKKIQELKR
Nature of the assay: two-hybrid library CCNG1.

A further assay addresses T31, 4H2673-bH.
T31 chain: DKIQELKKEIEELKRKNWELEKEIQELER
Nature of the assay: two-hybrid library CCNG1.

The target in the next assay is T32, 4H2586-bH.
T32 chain: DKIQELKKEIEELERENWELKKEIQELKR
Nature of the assay: two-hybrid library CCNG1.

The next assay addresses T33, 4H780-bH.
T33 chain: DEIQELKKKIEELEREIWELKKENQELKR
Nature of the assay: two-hybrid library CCNG1.

In another assay the target is T34, O10.
T34 chain: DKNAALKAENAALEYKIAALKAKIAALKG
Nature of the assay: two-hybrid library CCNG1.

In the next assay the target is T35, O14.
T35 chain: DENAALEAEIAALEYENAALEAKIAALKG
Nature of the assay: two-hybrid library CCNG1.

The target in another assay is T36, O5.
T36 chain: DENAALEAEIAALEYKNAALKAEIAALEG
Nature of the assay: two-hybrid library CCNG1.

A further assay has as its target T37, O7.
T37 chain: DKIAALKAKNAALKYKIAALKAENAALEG
Nature of the assay: two-hybrid library CCNG1.

A further assay concerns the target T38, O11.
T38 chain: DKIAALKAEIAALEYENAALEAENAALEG
Nature of the assay: two-hybrid library CCNG1.

The target in the next assay is T39, O13.
T39 chain: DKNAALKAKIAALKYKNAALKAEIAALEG
Nature of the assay: two-hybrid library CCNG1.

The target in the next assay is T40, O8.
T40 chain: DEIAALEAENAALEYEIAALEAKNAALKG
Nature of the assay: two-hybrid library CCNG1.

Another assay addresses T41, O16.
T41 chain: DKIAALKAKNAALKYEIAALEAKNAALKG
Nature of the assay: two-hybrid library CCNG1.

Another assay has as its target T42, O9.
T42 chain: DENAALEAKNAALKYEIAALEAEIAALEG
Nature of the assay: two-hybrid library CCNG1.

Another assay deals with T43, O12.
T43 chain: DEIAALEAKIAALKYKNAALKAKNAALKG
Nature of the assay: two-hybrid library CCNG1.

The target in a further assay is T44, O3.
T44 chain: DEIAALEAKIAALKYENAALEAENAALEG
Nature of the assay: two-hybrid library CCNG1.

For a further assay, the target named is T45, O15.
T45 chain: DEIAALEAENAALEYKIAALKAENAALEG
Nature of the assay: two-hybrid library CCNG1.

Another assay concerns the target T46, O6.
T46 chain: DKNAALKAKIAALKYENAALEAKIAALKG
Nature of the assay: two-hybrid library CCNG1.

For the next assay, the target named is T47, O2.
T47 chain: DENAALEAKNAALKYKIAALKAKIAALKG
Nature of the assay: two-hybrid library CCNG1.

The next assay addresses T48, O4.
T48 chain: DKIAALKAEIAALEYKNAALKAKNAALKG
Nature of the assay: two-hybrid library CCNG1.

The next assay concerns the target T49, P5A-bH.
T49 chain: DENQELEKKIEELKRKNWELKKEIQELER
Nature of the assay: two-hybrid library CCNG1.

Another assay addresses T50, P9A-bH.
T50 chain: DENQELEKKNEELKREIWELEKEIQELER
Nature of the assay: two-hybrid library CCNG1.

For the next assay, the target named is T51, P8A-bH.
T51 chain: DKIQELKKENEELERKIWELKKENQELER
Nature of the assay: two-hybrid library CCNG1.

Another assay addresses T52, P4A-bH.
T52 chain: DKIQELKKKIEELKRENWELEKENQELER
Nature of the assay: two-hybrid library CCNG1.

The next assay deals with T53, P11A-bH.
T53 chain: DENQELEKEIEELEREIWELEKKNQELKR
Nature of the assay: two-hybrid library CCNG1.

The target in the next assay is T54, P12A-bH.
T54 chain: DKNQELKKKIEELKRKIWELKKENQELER
Nature of the assay: two-hybrid library CCNG1.

The next assay deals with T55, P6A-bH.
T55 chain: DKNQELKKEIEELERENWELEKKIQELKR
Nature of the assay: two-hybrid library CCNG1.

For the next assay, the target named is T56, P2A-bH.
T56 chain: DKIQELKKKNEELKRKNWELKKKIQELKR
Nature of the assay: two-hybrid library CCNG1.

Another assay deals with T57, P3A-bH.
T57 chain: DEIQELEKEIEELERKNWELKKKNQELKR
Nature of the assay: two-hybrid library CCNG1.

For a further assay, the target named is T58, P7A-bH.
T58 chain: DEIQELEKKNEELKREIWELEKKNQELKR
Nature of the assay: two-hybrid library CCNG1.

The target in another assay is T59, P1A-bH.
T59 chain: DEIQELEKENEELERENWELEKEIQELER
Nature of the assay: two-hybrid library CCNG1.

Assay [1] has as its target T60, P6SC1.
T60 chain: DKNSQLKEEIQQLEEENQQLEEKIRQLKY
Nature of the assay: two-hybrid library CCmax. Particulars: mean of both orientations.

The target in assay [2] is T61, P6SC2.
T61 chain: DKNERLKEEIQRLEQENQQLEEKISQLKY
Nature of the assay: two-hybrid library CCmax. Particulars: mean of both orientations.

The target of assay [3] is T60, P6SC1. Nature of the assay: two-hybrid library CCNG1.
Assay [4] deals with T61, P6SC2. Nature of the assay: two-hybrid library CCNG1.

B1: 4H145-bH (peptide)
chain: DEIQELEKENEELERENWELEKEIQELER
For B1, the interaction score was -1.44 with 4H3632-bH; -0.793 in the assay with 4H145-bH; 1.19 with 4H3070-bH; -0.316 with 4H496-bH; -0.128 with 4H2619-bH; -0.409 with 4H342-bH. The interaction score with 4H2691-bH is -0.291.

B2: 4H112-bH (peptide)
chain: DEIQELEKEIEELKRKIWELKKKNQELKR
On to B2, for which the interaction score in the assay with 4H575-bH is -0.63; with 4H2627-bH, 1.4; with 4H1158-bH, 1.45; in the assay with 4H3112-bH, 1.27; with 4H3427-bH it was 1.48; with 4H3926-bH, 0.23. In addition, the interaction score with 4H457-bH is 1.45; with 4H797-bH, -0.295; with 4H4073-bH, 1.39; with 4H855-bH, -0.0783; with 4H118-bH, 0.444; in the assay with 4H170-bH it was -0.736. For the same molecule, the interaction score with 4H112-bH was 1.65; with 4H683-bH, 0.914; with 4H953-bH, -0.228; in the assay with 4H346-bH, 0.154; in the assay with 4H1831-bH, 0.143; in the assay with 4H918-bH it was -0.152. Also, the interaction score was -0.515 with 4H754-bH; -0.606 with 4H2233-bH; 1.49 with 4H3010-bH; 0.0767 with 4H968-bH; 0.179 with 4H2702-bH; 0.53 in the assay with 4H2673-bH. Besides, the interaction score amounted to 0.807 with 4H2586-bH and 0.211 in the assay with 4H780-bH.

B3: O10 (peptide)
chain: DKNAALKAENAALEYKIAALKAKIAALKG
Take B3: the interaction score in the assay with O10 was -2.12; with O14, -2.41; with O5, -0.483; in the assay with O7, -2.17; with O11 it was -1.61; with O13 it was -1.79. Further, the interaction score with O8 is -1.57; in the assay with O16 it was -1.79; in the assay with O9 it was 2.21; in the assay with O12 it was -2.06; with O3, -1.83; with O15, -1.1. For the same molecule, the interaction score was -2.48 with O6, -0.272 in the assay with O2 and -1.67 in the assay with O4.

B4: P11A-bH (peptide)
chain: DENQELEKEIEELEREIWELEKKNQELKR
B4: the interaction score in the assay with P5A-bH was 0.555; with P9A-bH, 1.09; in the assay with P8A-bH, 0.165; in the assay with P4A-bH, 1.83; with P11A-bH it was -2.55; in the assay with P12A-bH, 1.5. The interaction score with P6A-bH amounted to 0.692; in the assay with P2A-bH it was 0.45; with P3A-bH, 0.615; with P7A-bH, 0.921; in the assay with P1A-bH, 1.5.

B5: P5SC1 (peptide)
chain: DENSQLEEKISQLKQKNSRLKEEIARLEY
On to B5, for which the interaction score was 1.63 in the assay with P6SC1 [1], 0.454 in the assay with P6SC2 [2], 0.785 with P6SC1 [3] and -0.371 with P6SC2 [4].

B6: P5SC2 (peptide)
chain: DENARLEEKIRQLKQKNSQLKEEIQQLEY
For the molecule B6, the interaction score in the assay with P6SC1 [1] is 0.953; with P6SC2 [2], 0.811; with P6SC1 [3] it was 0.383; with P6SC2 [4], 0.391.

B7: P10A-bH (peptide)
chain: DKNQELKKENEELERKIWELKKKIQELKR
Regarding B7, the interaction score with P5A-bH was -0.49; with P8A-bH it was -0.68; with P4A-bH, 0.192; with P11A-bH, -0.118; with P12A-bH it was 1.15; in the assay with P6A-bH, 0.998. Moreover, the interaction score with P2A-bH was -0.586; with P3A-bH it was 0.247; in the assay with P7A-bH it was 0.686; with P1A-bH, 1.06.
